Data published in paper PMC8482623 (Nature structural & molecular biology, 2020).

Target: the molecule itself
Test: crystal structure

B1: truncated mouse Bcs1 lacking the TM and Bcs1-specific domains (ΔNmBcs1, residues 151-418) (domain or fragment)
chain: not shown
stoichiometry N: 7
